Series [1] is classed as physicochemical. Particulars: pH 7.4. The protocol: To a pre-saturated mixture of 500 µL 1-octanol and 500 µL of phosphate-buffered saline (PBS) (pH 7.4), 10 µL of 1 µM of the ^177Lu-labeled conjugates were added. The solution was vortexed for 1 h to reach the equilibrium and then centrifuged (3000 rpm) for 10 min. From each phase, 100 µL of the aliquot was removed and measured in a γ-counter. Each measurement was repeated three times. Care was taken to avoid cross-contamination between the phases. The partition coefficient was calculated as the average of the logarithmic values (n = 3) of the ratio between the radioactivity in the organic and the PBS phase.

The test system of series [2] is dual SST2- and SST5-expressing xenografts. Particulars: use of basic amino acids; reference not given; cited from earlier work.
In the next series the target is T1, human SST5 (Homo sapiens, UniProt P35346).
T1 construct: expressed in transfected cells; host or cells: HEK cells (HEK-SST5), stably transfected
Kind of series: Competition binding assay with 125I-SS-14 on membranes of HEK-SST5 cells. To be noted: 125I-SS-14 radioligand. The protocol: (§1) Human Embryonic Kidney (HEK) cells were stably transfected with plasmids encoding the human SST2 and SST5 (HEK-SST2 and HEK-SST5) and cultivated as previously described. […] Nontransfected HEK cells were used as negative control.
(§2) Binding assays were performed as described previously.

Series [3] concerns the target T2, human SST2 (Homo sapiens, UniProt P30874).
T2 construct: expressed in transfected cells; host or cells: HEK cells (HEK-SST2), stably transfected
Kind of series: Competition binding assay with 125I-SS-14 on membranes of HEK-SST2 cells. Particulars: 125I-SS-14 radioligand. The protocol: as §1, §2

In series [4] the target is T2, human SST2. Also on record: method as in PMID 32757150. To be noted: HEK-SST2 membranes, 125I-SS-14 radioligand; cited from earlier work.

Like-named read-outs stand apart in the source and are kept apart here.

Consider 6 compounds from paper PMC7570871, “Evaluation of a New ^177Lu-Labeled Somatostatin Analog for the Treatment of Tumors Expressing Somatostatin Receptor Subtypes 2 and 5” (Molecules, 2020).

T2 sequence (P30874 whole entry): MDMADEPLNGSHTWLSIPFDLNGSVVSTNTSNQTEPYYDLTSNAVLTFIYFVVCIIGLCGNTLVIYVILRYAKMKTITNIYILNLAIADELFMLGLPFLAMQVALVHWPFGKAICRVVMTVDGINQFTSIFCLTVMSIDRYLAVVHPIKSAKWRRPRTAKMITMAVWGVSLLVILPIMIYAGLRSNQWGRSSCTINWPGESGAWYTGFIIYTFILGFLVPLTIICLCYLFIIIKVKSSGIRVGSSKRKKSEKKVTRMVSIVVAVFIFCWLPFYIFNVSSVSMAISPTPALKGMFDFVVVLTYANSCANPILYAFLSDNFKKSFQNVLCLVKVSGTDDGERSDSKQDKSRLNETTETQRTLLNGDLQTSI
T1 sequence (P35346 whole entry): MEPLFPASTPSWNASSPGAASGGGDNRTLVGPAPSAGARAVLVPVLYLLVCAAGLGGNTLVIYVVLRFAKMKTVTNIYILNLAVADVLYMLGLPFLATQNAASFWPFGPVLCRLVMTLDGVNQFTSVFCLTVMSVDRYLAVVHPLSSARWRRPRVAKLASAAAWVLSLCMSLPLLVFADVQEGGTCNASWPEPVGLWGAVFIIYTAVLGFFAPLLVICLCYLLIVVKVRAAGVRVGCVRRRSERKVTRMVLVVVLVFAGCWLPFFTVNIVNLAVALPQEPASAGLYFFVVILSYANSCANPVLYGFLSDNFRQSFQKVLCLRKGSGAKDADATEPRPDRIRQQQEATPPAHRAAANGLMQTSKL

By logD is commonly meant the decadic logarithm of the distribution of all forms, ionised or not, between an organic phase and buffer at a given pH. Turning to `C[C@@H](O)[C@@H]1NC(=O)[C@H](CCCCN)NC(=O)[C@@H](Cc2c[nH]c3ccccc23)NC(=O)[C@H](Cc2cccc3ccccc23)NC(=O)[C@@H](NC(=O)[C@@H](Cc2ccccc2)NC(=O)CN2CCN(CC(=O)O)CCN(CC(=O)O)CCN(CC(=O)O)CC2)CSSC[C@@H](C(=O)N[C@H](CO)[C@@H](C)O)NC1=O` [[^177Lu]Lu-DOTA-NOC, metal not drawn, reference compound], in series [1], the logD is -1.6 ± 0.1. For the compound [^177Lu]Lu-DOTA-TATE, the “Kidney uptake reduction with basic amino acids” value in series [2] is recorded as 40%. The term IC50 denotes the concentration that inhibits the measured activity by half. For the compound `C[C@@H](O)[C@@H]1NC(=O)[C@H](CCCCN)NC(=O)[C@@H](Cc2c[nH]c3ccccc23)NC(=O)[C@H](Cc2cccc3ccccc23)NC(=O)[C@@H](NC(=O)[C@@H](Cc2ccccc2)NC(=O)CN2CCN(CC(=O)O)CCN(CC(=O)O)CCN(CC(=O)O)CC2)CSSC[C@@H](C(=O)N[C@H](CO)[C@@H](C)O)NC1=O` [^natLu-DOTA-NOC, metal not drawn, reference compound], the IC50 at human SST5 is 4.8 nM; on human SST2 [3], 0.51 nM. Turning to “^natGa-DOTA-NOC: natGa complex of DOTA-NOC, values from”, the IC50 with human SST2 [4] is 0.7 nM. `CC(C)[C@@H]1NC(=O)[C@H](CCCCN)NC(=O)[C@@H](Cc2c[nH]c3ccccc23)NC(=O)[C@H](Cc2ccc(O)c(I)c2)NC(=O)[C@@H](NC(=O)[C@@H](Cc2ccc(N)c(I)c2)NC(=O)CN2CCN(CC(=O)O)CCN(CC(=O)O)CCN(CC(=O)O)CC2)CSSC[C@@H](C(=O)N[C@H](C(N)=O)[C@@H](C)O)NC1=O` [^natLu-DOTA-ST8950, metal not drawn] gave an IC50 on human SST2 [3] of 0.37 nM. Turning to “(4-amino-3-iodo)-D-Phe-c[Cys-(3-iodo)-Tyr-D-Trp-Lys-Val-Cys]-Thr-NH2 [ST8950]”, the IC50 with human SST2 [4] is 0.28 nM.
